The binders below were run against T1, human IL-2 receptor (IL-2Rα/IL-2Rβ/γc) (human, UniProt P01589 22-272; P14784 27-551; P31785 23-369) (assay: cell-based or functional assay).
T1 sequence 1: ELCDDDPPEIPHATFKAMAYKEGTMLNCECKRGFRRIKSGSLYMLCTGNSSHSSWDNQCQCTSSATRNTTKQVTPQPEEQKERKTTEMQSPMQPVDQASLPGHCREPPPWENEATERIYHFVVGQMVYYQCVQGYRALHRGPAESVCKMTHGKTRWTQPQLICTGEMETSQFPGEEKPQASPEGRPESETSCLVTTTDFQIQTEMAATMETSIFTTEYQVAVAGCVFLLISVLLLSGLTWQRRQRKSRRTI
T1 sequence 2: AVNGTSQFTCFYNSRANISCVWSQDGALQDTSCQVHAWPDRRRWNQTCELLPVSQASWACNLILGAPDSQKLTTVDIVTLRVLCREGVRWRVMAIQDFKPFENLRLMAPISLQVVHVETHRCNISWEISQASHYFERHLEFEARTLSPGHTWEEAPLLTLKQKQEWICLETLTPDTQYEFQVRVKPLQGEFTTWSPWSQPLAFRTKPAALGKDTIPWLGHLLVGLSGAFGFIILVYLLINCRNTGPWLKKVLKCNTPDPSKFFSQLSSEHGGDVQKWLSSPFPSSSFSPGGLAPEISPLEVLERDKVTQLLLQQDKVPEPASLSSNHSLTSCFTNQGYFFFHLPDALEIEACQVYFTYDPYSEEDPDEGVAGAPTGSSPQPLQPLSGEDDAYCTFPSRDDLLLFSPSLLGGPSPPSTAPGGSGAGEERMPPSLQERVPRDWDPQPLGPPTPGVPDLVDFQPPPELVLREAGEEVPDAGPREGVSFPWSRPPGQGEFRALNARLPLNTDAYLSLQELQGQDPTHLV
T1 sequence 3: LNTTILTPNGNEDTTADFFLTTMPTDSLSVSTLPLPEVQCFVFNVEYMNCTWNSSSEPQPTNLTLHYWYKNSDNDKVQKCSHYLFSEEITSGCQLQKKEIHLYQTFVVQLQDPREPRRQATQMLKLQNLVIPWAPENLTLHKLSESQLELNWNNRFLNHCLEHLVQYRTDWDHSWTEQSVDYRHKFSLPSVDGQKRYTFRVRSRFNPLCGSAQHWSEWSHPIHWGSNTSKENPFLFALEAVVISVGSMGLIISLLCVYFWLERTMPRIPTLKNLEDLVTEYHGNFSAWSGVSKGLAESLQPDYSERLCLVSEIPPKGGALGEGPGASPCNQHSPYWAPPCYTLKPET

Row | Binder | EC50 (nM) pSTAT5, NK, human PBMCs [nM] | EC50 (nM) pSTAT5, Treg, human PBMCs [pM] | Fold Max signal (% pSTAT5+) Treg/NK [fold] | Max signal (% pSTAT5+), NK [% pSTAT5+] | Max signal (% pSTAT5+), Treg [% pSTAT5+] | fold EC50 NK/Treg [fold]
1 | DC00043 (other) chain 1: QVQLVESGGGLVQPGGSLRLSCATSGFTFRNNFMSWVRQAPGKGLEWVSTISYGGESTTYAESVKGRFTISRDNAKNTLYLQMNNLKPEDTAVYYCAKATSYDSIRSGSRGQGTQVTVSSDKTHTCPPCPAPEAAGGPSVFLFPPKPKDTLMISRTPEVTCVVVDVSHEDPEVKFNWYVDGVEVHNAKTKPREEQYNSTYRVVSVLTVLHQDWLNGKEYKCKVSNKALGAPIEKTISKAKGQPREPQVYTLPPSRDELTKNQVSLTCLVKGFYPSDIAVEWESNGQPENNYKTTPPVLDSDGSFLLYSKLTVDKSRWQQGNVFSCSVMHEALHNHYTQKSLSLSPGK chain 2: QVQLVESGGGLVQPGGSLRLSCATSGFTFRNNFMSWVRQAPGKGLEWVSTISYGGESTTYAESVKGRFTISRDNAKNTLYLQMNNLKPEDTAVYYCAKATSYDSIRSGSRGQGTQVTVSSGGGGSGGGGSGGGGSEVQLVESGGGLVQTGGSLRLSCAASGGTFSRDAMAWFRQVPGKEREFVALISWSGATTNYADSVKGRFAISRDNGKNTVYLQMNRLKPADTAIYYCAADRRPMGSRSYFEPTEYDDWGQGTQVTVSSGGGGSGGGGSGGGGSQVQLVESGGGLVQAGGSLTLSCAAPGRTFGTDVVGWFRQAPGKEREFVASISRSGDGIYYDDSVKGRFTISRNNAWNTVNLQMNSLKVEDTAVYYCAAGDGWSTYDYWGQGTQVTVSSGGGGSGGGGSGGGGSDKTHTCPPCPAPEAAGGPSVFLFPPKPKDTLMISRTPEVTCVVVDVSHEDPEVKFNWYVDGVEVHNAKTKPREEQYNSTYRVVSVLTVLHQDWLNGKEYKCKVSNKALGAPIEKTISKAKGQPREPQVYTLPPSRDELTKNQVSLTCLVKGFYPSDIAVEWESNGQPENNYKTTPPVLDSDGSFFLYSRLTVDKSRWQQGNVFSCSVMHEALHNHYTQKSLSLSPGK | 0.0425 | 0.529 | 16 | 3 | 54 | 80
2 | DC00044 (other) chain 1: QVQLVESGGGLVQPGGSLRLSCATSGFTFRNNFMSWVRQAPGKGLEWVSTISYGGESTTYAESVKGRFTISRDNAKNTLYLQMNNLKPEDTAVYYCAKATSYDSIRSGSRGQGTQVTVSSDKTHTCPPCPAPEAAGGPSVFLFPPKPKDTLMISRTPEVTCVVVDVSHEDPEVKFNWYVDGVEVHNAKTKPREEQYNSTYRVVSVLTVLHQDWLNGKEYKCKVSNKALGAPIEKTISKAKGQPREPQVYTLPPSRDELTKNQVSLTCLVKGFYPSDIAVEWESNGQPENNYKTTPPVLDSDGSFLLYSKLTVDKSRWQQGNVFSCSVMHEALHNHYTQKSLSLSPGK chain 2: QVQLVESGGGLVQAGGSLTLSCAAPGRTFGTDVVGWFRQAPGKEREFVASISRSGDGIYYDDSVKGRFTISRNNAWNTVNLQMNSLKVEDTAVYYCAAGDGWSTYDYWGQGTQVTVSSGGGGSGGGGSGGGGSEVQLVESGGGLVQTGGSLRLSCAASGGTFSRDAMAWFRQVPGKEREFVALISWSGATTNYADSVKGRFAISRDNGKNTVYLQMNRLKPADTAIYYCAADRRPMGSRSYFEPTEYDDWGQGTQVTVSSGGGGSGGGGSGGGGSQVQLVESGGGLVQPGGSLRLSCATSGFTFRNNFMSWVRQAPGKGLEWVSTISYGGESTTYAESVKGRFTISRDNAKNTLYLQMNNLKPEDTAVYYCAKATSYDSIRSGSRGQGTQVTVSSDKTHTCPPCPAPEAAGGPSVFLFPPKPKDTLMISRTPEVTCVVVDVSHEDPEVKFNWYVDGVEVHNAKTKPREEQYNSTYRVVSVLTVLHQDWLNGKEYKCKVSNKALGAPIEKTISKAKGQPREPQVYTLPPSRDELTKNQVSLTCLVKGFYPSDIAVEWESNGQPENNYKTTPPVLDSDGSFFLYSRLTVDKSRWQQGNVFSCSVMHEALHNHYTQKSLSLSPGK | 0.442 | < 0.1 | 5 | 20 | 96 | > 4420
3 | DC00045 (other) chain 1: QVQLVESGGGLVQPGGSLRLSCATSGFTFRNNFMSWVRQAPGKGLEWVSTISYGGESTTYAESVKGRFTISRDNAKNTLYLQMNNLKPEDTAVYYCAKATSYDSIRSGSRGQGTQVTVSSDKTHTCPPCPAPEAAGGPSVFLFPPKPKDTLMISRTPEVTCVVVDVSHEDPEVKFNWYVDGVEVHNAKTKPREEQYNSTYRVVSVLTVLHQDWLNGKEYKCKVSNKALGAPIEKTISKAKGQPREPQVYTLPPSRDELTKNQVSLTCLVKGFYPSDIAVEWESNGQPENNYKTTPPVLDSDGSFLLYSKLTVDKSRWQQGNVFSCSVMHEALHNHYTQKSLSLSPGK chain 2: QVQLVESGGGLVQAGGSLTLSCAAPGRTFGTDVVGWFRQAPGKEREFVASISRSGDGIYYDDSVKGRFTISRNNAWNTVNLQMNSLKVEDTAVYYCAAGDGWSTYDYWGQGTQVTVSSGGGGSGGGGSGGGGSQVQLVESGGGLVQPGGSLRLSCATSGFTFRNNFMSWVRQAPGKGLEWVSTISYGGESTTYAESVKGRFTISRDNAKNTLYLQMNNLKPEDTAVYYCAKATSYDSIRSGSRGQGTQVTVSSGGGGSGGGGSGGGGSEVQLVESGGGLVQTGGSLRLSCAASGGTFSRDAMAWFRQVPGKEREFVALISWSGATTNYADSVKGRFAISRDNGKNTVYLQMNRLKPADTAIYYCAADRRPMGSRSYFEPTEYDDWGQGTQVTVSSGGGGSGGGGSGGGGSDKTHTCPPCPAPEAAGGPSVFLFPPKPKDTLMISRTPEVTCVVVDVSHEDPEVKFNWYVDGVEVHNAKTKPREEQYNSTYRVVSVLTVLHQDWLNGKEYKCKVSNKALGAPIEKTISKAKGQPREPQVYTLPPSRDELTKNQVSLTCLVKGFYPSDIAVEWESNGQPENNYKTTPPVLDSDGSFFLYSRLTVDKSRWQQGNVFSCSVMHEALHNHYTQKSLSLSPGK | 0.0573 | 0.151 | 12 | 7 | 88 | 379
4 | DC00046 (other) chain 1: QVQLVESGGGLVQPGGSLRLSCATSGFTFRNNFMSWVRQAPGKGLEWVSTISYGGESTTYAESVKGRFTISRDNAKNTLYLQMNNLKPEDTAVYYCAKATSYDSIRSGSRGQGTQVTVSSGGGGSGGGGSGGGGSQVQLVESGGGLVQPGGSLRLSCATSGFTFRNNFMSWVRQAPGKGLEWVSTISYGGESTTYAESVKGRFTISRDNAKNTLYLQMNNLKPEDTAVYYCAKATSYDSIRSGSRGQGTQVTVSSDKTHTCPPCPAPEAAGGPSVFLFPPKPKDTLMISRTPEVTCVVVDVSHEDPEVKFNWYVDGVEVHNAKTKPREEQYNSTYRVVSVLTVLHQDWLNGKEYKCKVSNKALGAPIEKTISKAKGQPREPQVYTLPPSRDELTKNQVSLTCLVKGFYPSDIAVEWESNGQPENNYKTTPPVLDSDGSFLLYSKLTVDKSRWQQGNVFSCSVMHEALHNHYTQKSLSLSPGK chain 2: EVQLVESGGGLVQTGGSLRLSCAASGGTFSRDAMAWFRQVPGKEREFVALISWSGATTNYADSVKGRFAISRDNGKNTVYLQMNRLKPADTAIYYCAADRRPMGSRSYFEPTEYDDWGQGTQVTVSSGGGGSGGGGSGGGGSQVQLVESGGGLVQPGGSLRLSCATSGFTFRNNFMSWVRQAPGKGLEWVSTISYGGESTTYAESVKGRFTISRDNAKNTLYLQMNNLKPEDTAVYYCAKATSYDSIRSGSRGQGTQVTVSSGGGGSGGGGSGGGGSQVQLVESGGGLVQAGGSLTLSCAAPGRTFGTDVVGWFRQAPGKEREFVASISRSGDGIYYDDSVKGRFTISRNNAWNTVNLQMNSLKVEDTAVYYCAAGDGWSTYDYWGQGTQVTVSSGGGGSGGGGSGGGGSDKTHTCPPCPAPEAAGGPSVFLFPPKPKDTLMISRTPEVTCVVVDVSHEDPEVKFNWYVDGVEVHNAKTKPREEQYNSTYRVVSVLTVLHQDWLNGKEYKCKVSNKALGAPIEKTISKAKGQPREPQVYTLPPSRDELTKNQVSLTCLVKGFYPSDIAVEWESNGQPENNYKTTPPVLDSDGSFFLYSRLTVDKSRWQQGNVFSCSVMHEALHNHYTQKSLSLSPGK |  |  | 4 | 6 | 25 | 
